Values of other authors as cited in publication PMC6719960.

Target: claudin-4 (UniProt O14493)
Sequence of UniProt O14493 (O14493 whole entry): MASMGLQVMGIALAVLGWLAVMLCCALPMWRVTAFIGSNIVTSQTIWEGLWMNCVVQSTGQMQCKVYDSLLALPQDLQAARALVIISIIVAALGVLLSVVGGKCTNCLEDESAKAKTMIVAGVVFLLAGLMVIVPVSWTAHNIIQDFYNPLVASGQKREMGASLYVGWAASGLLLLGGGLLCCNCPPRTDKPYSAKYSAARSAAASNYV

C-CPE C-terminal fragment (from UniProt P01558)
Kd: 0.5 nM
